The series in a line: protein stability index of a GFP-peptide fusion (yeast GPS) (PSI 1-4); higher = more stable; sorted into four equal gates, so the index is relative within each strain. In outline: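 The protein stability index combines read frequencies across sorting gates, each weighted by its gate number and then summed. To obtain those frequencies, a pooled yeast library of GFP fusions to tiled 17-residue yeast protein peptides, on a plasmid also expressing Cherry, was grown to mid-log phase in leucine-free medium. The cells were sorted into four equal gates by GFP/Cherry ratio before plasmid amplification by PCR and Illumina sequencing.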

± gives the uncertainty stated by the source.

On to DDESPRFVMPNQLLAAL [RRP6], for which the protein stability index was 1.98 ± 0.048 (doa10∆), 2.02 ± 0.052 (pdr5∆), 1.88 ± 0.069 (san1∆) and 2.18 ± 0.042 (ubr1∆).
For the sequence WQGKPVFIRHRTPHEIQ [RIP1], the protein stability index came to 2.24 ± 0.28 (pdr5∆) and 1.68 ± 0.17 (ubr1∆).
For IIVQYLTKFRQKLMQLV [RGR1], the protein stability index by setting is: (doa10∆) 2.65 ± 0.089; (pdr5∆) 2.88 ± 0.16; (san1∆) 2.56 ± 0.083; (ubr1∆) 2.46 ± 0.1.
On to DSELNRALFETKLNLHC [RRI1], for which the protein stability index reads like this: (doa10∆) 2.75 ± 0.067; (pdr5∆) 2.79 ± 0.053; (san1∆) 3 ± 0.038; (ubr1∆) 2.92 ± 0.055.
Turning to KTERVEDQKVVDKALLA [RPL6B], the protein stability index worked out at 1.52 ± 0.17 (doa10∆), 1.43 ± 0.089 (pdr5∆), 1.38 ± 0.15 (san1∆) and 1.19 ± 0.13 (ubr1∆).
As to IKFLLTFIDKERHQKQL [YCS4], the protein stability index by setting is: (doa10∆) 1.7 ± 0.18; (san1∆) 1.58 ± 0.27.
With EENDLQQKLNTRMQRGH [REC8], the protein stability index (doa10∆) was determined as 3.17 ± 0.12, the protein stability index (pdr5∆) was found to be 3.14 ± 0.078, the protein stability index (san1∆) was 3.2 ± 0.22 and the protein stability index (ubr1∆) stood at 3.4 ± 0.048.
As to TSINHKIYRVGKGDDEA [RPL3], the protein stability index by setting is: (doa10∆) 3.44 ± 0.071; (pdr5∆) 3.61 ± 0.1; (san1∆) 3.67 ± 0.044; (ubr1∆) 3.28 ± 0.11.
In the case of SAETLSELIRTTLDAEK [FAS1], the protein stability index reads like this: (doa10∆) 2.78 ± 0.054; (pdr5∆) 2.73 ± 0.046; (san1∆) 2.84 ± 0.044; (ubr1∆) 2.63 ± 0.053.
Regarding LEPDYQAPFSTSTKDKN [MED1], the protein stability index (doa10∆) is 2.84 ± 0.075, the protein stability index (pdr5∆) worked out at 3 ± 0.08, the protein stability index (san1∆) was 2.81 ± 0.084 and the protein stability index (ubr1∆) was determined as 3.08 ± 0.074.
In the case of WADIFAKALDGQNLKDL [RPP1A], the protein stability index (doa10∆) came to 3.08 ± 0.11, the protein stability index (pdr5∆) stood at 3.31 ± 0.13, the protein stability index (san1∆) was 2.58 ± 0.24 and the protein stability index (ubr1∆) turned out to be 2.94 ± 0.2.
As for QCNYSSLVFNRKLAVER [PRE5], the protein stability index runs as follows: (doa10∆) 2.23 ± 0.2; (pdr5∆) 1.5 ± 0.18; (san1∆) 1.46 ± 0.19; (ubr1∆) 1.67 ± 0.2.
For VGRLASVVAKQLLNGQK [RPL16A], the protein stability index (pdr5∆) came out at 1.89 ± 0.3, the protein stability index (san1∆) worked out at 2.99 ± 0.13 and the protein stability index (ubr1∆) amounted to 1.67 ± 0.2.
In turn, DLIAEQVVTDYNILGNL [SSN2] had a protein stability index (doa10∆) of 2.52 ± 0.074, a protein stability index (pdr5∆) of 3.11 ± 0.077, a protein stability index (san1∆) of 2.28 ± 0.11 and a protein stability index (ubr1∆) of 2.21 ± 0.063.
For VSLLKKNWQNVGSLVVK [RPL1A] the same measures were 1.15 ± 0.049, 1.39 ± 0.056, 1.36 ± 0.12 and 1.32 ± 0.053.
Turning to SILKRHSFAVLLHERKL [NUT1], the protein stability index reads like this: (doa10∆) 2.19 ± 0.12; (pdr5∆) 2.13 ± 0.078; (san1∆) 2.26 ± 0.18; (ubr1∆) 2.45 ± 0.1.
For the sequence NTCYLNATLQALYRVND [UBP6], the protein stability index is 2.25 ± 0.07 (doa10∆), 2.59 ± 0.069 (pdr5∆), 2.69 ± 0.063 (san1∆) and 2.5 ± 0.055 (ubr1∆).
On to ITHKLTKNDAGSKQILK [BRR2], for which the protein stability index by setting is: (doa10∆) 3.07 ± 0.071; (pdr5∆) 3.43 ± 0.079; (san1∆) 3.21 ± 0.036; (ubr1∆) 3.23 ± 0.055.
For AHKGQIVLIKGISSAYI [SNU114], in that order: 1.56 ± 0.07, 1.48 ± 0.064, 1.89 ± 0.069 and 1.86 ± 0.053.
In the case of IQEFQGNPYIELNQDRL [SNF5], the protein stability index is, setting by setting: (doa10∆) 3.13 ± 0.059; (pdr5∆) 3.15 ± 0.07; (san1∆) 3.24 ± 0.06; (ubr1∆) 3.23 ± 0.04.
Regarding HQSLGPDGLGEVGMKVQ [RET1], the protein stability index (doa10∆) is 2.7 ± 0.16.
Regarding RQFLHELRRPGVDNLRR [RPO31], the protein stability index worked out at 1.27 ± 0.078 (doa10∆), 1.37 ± 0.097 (pdr5∆), 1.25 ± 0.23 (san1∆) and 1.64 ± 0.093 (ubr1∆).
Turning to AKNSIIDSSNLPLQAQQ [SWI1], the protein stability index reads like this: (doa10∆) 2.73 ± 0.069; (pdr5∆) 2.94 ± 0.071; (san1∆) 2.74 ± 0.099; (ubr1∆) 2.78 ± 0.042.
Sequence PRLDTSKEFSAYVSGLF [YJR042W/NUP85] showed a protein stability index (doa10∆) of 2.33 ± 0.13, a protein stability index (pdr5∆) of 2.08 ± 0.082, a protein stability index (san1∆) of 2.05 ± 0.13 and a protein stability index (ubr1∆) of 3.12 ± 0.13.
As for NMVLENVKELWTEKKGK [SMD2], the protein stability index by setting is: (doa10∆) 2.91 ± 0.11; (pdr5∆) 2.67 ± 0.098; (san1∆) 2.47 ± 0.14; (ubr1∆) 3.3 ± 0.065.
Consider NVLNQIHQILLPTNPTL [CSE2], for which the protein stability index was 2.65 ± 0.036 (doa10∆), 2.74 ± 0.037 (pdr5∆), 2.14 ± 0.05 (san1∆) and 2.42 ± 0.035 (ubr1∆).
In the case of QIPTPNNTVDPGFDEFQ [CSI1], the protein stability index (doa10∆) came out at 3.17 ± 0.057, the protein stability index (pdr5∆) is 2.98 ± 0.045, the protein stability index (san1∆) was found to be 3.04 ± 0.043 and the protein stability index (ubr1∆) turned out to be 2.89 ± 0.039.
As to AALYKEVYNVIASDGSY [RPO21], the protein stability index amounted to 2.34 ± 0.089 (doa10∆), 1.77 ± 0.1 (pdr5∆), 2.22 ± 0.15 (san1∆) and 3.06 ± 0.12 (ubr1∆).
In the case of VGSEKVLQDLRLGSKKL [YJL039C/NUP192], the protein stability index reads like this: (doa10∆) 3.34 ± 0.13; (san1∆) 3.38 ± 0.13.
For the sequence LKLLKENIIQMEMIENR [FAS1], the protein stability index is, setting by setting: (doa10∆) 1.87 ± 0.065; (pdr5∆) 2.27 ± 0.094; (san1∆) 1.32 ± 0.12; (ubr1∆) 1.93 ± 0.074.
Consider LIECLLSKVAALSGNEG [RPB2], for which the protein stability index by setting is: (doa10∆) 1.47 ± 0.079; (pdr5∆) 1.74 ± 0.098; (san1∆) 1.89 ± 0.11; (ubr1∆) 1.27 ± 0.08.
Regarding IKTFFTQKDSARVSPRN [YAR002W/NUP60], the protein stability index by setting is: (doa10∆) 3.22 ± 0.097; (pdr5∆) 3.49 ± 0.1; (san1∆) 3.18 ± 0.086; (ubr1∆) 3.02 ± 0.064.
Take DATTWRYSMSEQFPFYL [IRR1]: the protein stability index by setting is: (doa10∆) 3.09 ± 0.098; (pdr5∆) 2.94 ± 0.066; (san1∆) 3.06 ± 0.063; (ubr1∆) 3.07 ± 0.049.
As for IYYTPAFFHLFASLRVL [YJL039C/NUP192], the protein stability index reads like this: (doa10∆) 1.73 ± 0.08; (pdr5∆) 1.71 ± 0.081; (san1∆) 1.43 ± 0.13; (ubr1∆) 1.75 ± 0.083.
On to KDSLDNTFVTRLNNVFV [RPS4A], for which the protein stability index is, setting by setting: (doa10∆) 3.02 ± 0.11; (pdr5∆) 3.02 ± 0.078; (san1∆) 2.95 ± 0.085; (ubr1∆) 2.95 ± 0.062.
NLPGNITVVLGVNGYIW [RRP4] showed a protein stability index (doa10∆) of 2.01 ± 0.15, a protein stability index (pdr5∆) of 2.64 ± 0.093, a protein stability index (san1∆) of 1.67 ± 0.12 and a protein stability index (ubr1∆) of 2.5 ± 0.066.
LKTNFETEWNLQTLAAD [RPB11]: the protein stability index came to 2.79 ± 0.13 (doa10∆), 2.91 ± 0.11 (pdr5∆), 2.53 ± 0.079 (san1∆) and 2.67 ± 0.1 (ubr1∆).
Consider RLWHTLKYYQDLKNTRM [SNF5], for which the protein stability index is, setting by setting: (doa10∆) 1.77 ± 0.057; (pdr5∆) 2.02 ± 0.048; (san1∆) 2.01 ± 0.06; (ubr1∆) 1.7 ± 0.051.

Source of the values: the supplement of paper PMC9732359.
